Data on three molecules can be found in patent US20240141039A1 (AGENUS, published 2024).

As usually defined, the Kd is the equilibrium constant for the complex coming apart. A word on the koff: it is the first-order rate constant of dissociation. A word on the kon: it is the second-order rate constant of association. By IC50 is commonly meant the concentration that gives 50% inhibition. A word on the EC50 (read off the curve): it is the concentration needed to bring the measured effect to its halfway point.

The target of assay [1] is T1, full-length isoform 2 ECD of cynomolgus monkey CD96 (His-tagged) (cynomolgus monkey).
T1 construct: also called His-tagged isoform 2 of cynomolgus monkey CD96; cyno CD96 extracellular domain isoform 2
T1 chain: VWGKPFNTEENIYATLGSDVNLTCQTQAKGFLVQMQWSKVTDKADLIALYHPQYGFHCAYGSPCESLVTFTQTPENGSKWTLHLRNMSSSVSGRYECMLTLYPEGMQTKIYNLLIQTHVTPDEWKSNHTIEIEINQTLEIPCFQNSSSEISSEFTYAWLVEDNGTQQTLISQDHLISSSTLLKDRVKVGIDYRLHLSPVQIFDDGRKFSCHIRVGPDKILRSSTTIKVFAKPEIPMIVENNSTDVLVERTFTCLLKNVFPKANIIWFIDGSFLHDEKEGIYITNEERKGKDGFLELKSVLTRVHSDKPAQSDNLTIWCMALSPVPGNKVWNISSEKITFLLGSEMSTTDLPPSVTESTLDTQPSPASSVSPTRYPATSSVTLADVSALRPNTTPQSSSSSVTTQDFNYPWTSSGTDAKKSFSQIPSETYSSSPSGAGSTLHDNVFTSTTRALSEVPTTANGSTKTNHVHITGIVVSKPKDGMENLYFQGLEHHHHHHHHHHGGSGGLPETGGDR
Kind of assay: SPR Biacore T200, Protein A capture, 1:1 model, experiment #1. The method, then:
(§1) Briefly, surface plasmon resonance experiments were performed using a Biacore T200 instrument, and the association rate (kₐ), dissociation rate (kd), and dissociation constant (KD) were calculated from each experiment using a 1:1 binding model with Biacore T200 Evaluation Software.
Multispecific molecules were captured using a 30-sec injection at a flow rate of 10 μl/min to reach about 350 resonance units (RUs). […] The sensor chip was regenerated between cycles with two 30-sec injections of 10 mM glycine, pH 1.5. Sensorgrams were evaluated and fit to a simple Langmuir 1:1 interaction model using the global data analysis option of BIAevaluation 3.0 software. Data quality was verified by visually inspecting deviations and curve fitting, and by evaluating the parameters of Rₘₐₓ, Chi2, and Tc.
(In general: SPR reads the build-up and loss of mass on a sensor chip optically.)

Assay [2] deals with T2, wild type full-length human TIGIT expressed on cells (human, UniProt Q495A1 22-244).
T2 construct: whole, on cells; also called human TIGIT-CHO; human TIGIT CHO cells
T2 sequence (looked up): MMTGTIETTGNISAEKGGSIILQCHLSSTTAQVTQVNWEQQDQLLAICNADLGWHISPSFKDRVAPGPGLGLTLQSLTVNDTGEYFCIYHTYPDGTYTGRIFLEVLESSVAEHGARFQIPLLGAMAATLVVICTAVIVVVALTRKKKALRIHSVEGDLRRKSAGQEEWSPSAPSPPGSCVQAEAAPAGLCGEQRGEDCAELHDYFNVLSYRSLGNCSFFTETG
Kind of assay: flow cytometry, blocking of CD155-Fc-PE binding to human TIGIT CHO cells, geomean of 3 experiments. The method, then: A 4× concentrated intermediate stock of each multispecific molecule was prepared in a microplate. Antibodies were serially diluted 1-to-3 in FACS buffer. […] Lastly, 25 μL of human TIGIT-CHO cells, prepared as described above, were added to each well. After a 30-minute incubation on ice, the cells were washed twice with cold FACS Buffer, and the cells were analyzed by flow cytometry (BD LSR Fortessa Flow Cytometer). The data were analyzed using the FlowJo software by sequentially gating on the FSC-A vs. SSC-A and SSC-H vs. SSC-A. Mean fluorescence intensity (MFI) values for PE were calculated, and the data were plotted by GraphPad Prism software and analyzed as described above.

Assay [3] has as its target T2, wild type full-length human TIGIT …. The experiment in a line: flow cytometry on CHO cells expressing human TIGIT, PE anti-human IgG Fc detection. Here is the method:
The ability of anti-TIGIT antibodies to bind to wild type human TIGIT expressed on the surface of CHO cells was assessed. Briefly, CHO cells were transfected with a vector encoding wild type human TIGIT (human TIGIT-CHO), and clones stably expressing TIGIT were selected.
For the antibody binding assay, a frozen aliquot of human TIGIT-CHO cells was thawed at 37° C. and then transferred to a tube containing DPBS supplemented with 0.5% Bovine Serum Albumin and 0.05% Sodium Azide (FACS Buffer). Cells were centrifuged at 300 g for five minutes. The supernatant was discarded, and cells resuspended in FACS buffer were seeded in a 96-well U-bottom tissue culture plate at a density of […] cells per well in 50 μL. In a separate microplate, a 2× concentrated intermediate stock of each antibody was prepared. Antibodies were serially diluted 1-to-4 in FACS buffer. A total of 11 working dilutions ranging from 60 μg/mL to 0.000057 μg/mL were prepared. […] After a 30-minute incubation on ice, the cells were washed twice with cold FACS Buffer, and the cells were analyzed by flow cytometry (BD LSR Fortessa Flow Cytometer). The data were analyzed using the FlowJo software by sequentially gating the FSC-A vs. SSC-A, and SSC-H vs. SSC-A. Mean fluorescence intensity (MFI) values for PE were calculated, and the data were plotted by GraphPad Prism software.
(In general: In flow cytometry, cells or beads pass a laser one at a time.)

The target in assay [4] is T3, full-length ECD of human TIGIT (His-tagged) (human).
T3 construct: also called His-tagged human TIGIT; human TIGIT extracellular domain
T3 chain: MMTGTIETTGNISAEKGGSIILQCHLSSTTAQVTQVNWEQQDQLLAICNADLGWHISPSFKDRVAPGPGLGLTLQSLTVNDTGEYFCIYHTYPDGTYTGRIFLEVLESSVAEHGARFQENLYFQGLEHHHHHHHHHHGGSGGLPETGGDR
The experiment in a line: SPR Biacore T200, geomean of experiments #1 and #2. Here is the method:
as §1
Antibodies were captured using a 30-sec injection at a flow rate of 10 μl/min to reach about 500 resonance units (RUs). […] The sensor chip was regenerated between cycles with two 30-sec injections of 10 mM glycine, pH 1.5. Sensorgrams were evaluated and fit to a simple Langmuir 1:1 interaction model using the global data analysis option of BIAevaluation 3.0 software. Data quality was verified by visually inspecting deviations and curve fitting, and by evaluating the parameters of Rₘₐₓ, Chi2, and Tc.

B1: anti-TIGIT×CD96 multispecific molecule BA123 (bispecific antibody, human IgG1, kappa, lambda)
heavy 1: QVQLVQSGAEVKKPGASVKVSCKASGYTFTSYGISWVRQAPGQGLEWMGWISAYNANTNYAQKLQGRVTMTTDTSTSTAYMELRSLRSDDTAVYYCARSAGVLGGMDVWGRGTLVTVSSASTKGPSVFPLAPSSKSTSGGTAALGCLVKDYFPEPVTVSWNSGALTSGVHTFPAVLQSSGLYSLSSVVTVPSSSLGTQTYICNVNHKPSNTKVDKRVEPKSCDKTHTCPPCPAPELLGGPDVFLFPPKPKDTLMISRTPEVTCVVVDVSHEDPEVKFNWYVDGVEVHNAKTKPREEQYNSTYRVVSVLTVLHQDWLNGKEYKCKVSNKALPAPIEKTISKAKGQPREPQVYTLPPSREEMTKNQVSLSCAVKGFYPSDIAVEWESNGQPENNYKTTPPVLDSDGSFFLVSKLTVDKSRWQQGNVFSCSVMHEALHNHYTQKSLSLSPG
light 1: not shown
heavy 2: EVQLVQSGAEVKKPGSSVKVSCKASGYTFASYGISWVRQAPGQGLEWMGGITPFFNRVDVAEKFQGRVTITADKSTSTAYIELSSLRSEDTAVYYCARDLRRGGVGDAFDIWGRGTLVTVSSASTKGPSVFPLAPSSKSTSGGTAALGCLVKDYFPEPVTVSWNSGALTSGVHTFPAVLQSSGLYSLSSVVTVPSSSLGTQTYICNVNHKPSNTKVDKRVEPKSCDKTHTCPPCPAPELLGGPDVFLFPPKPKDTLMISRTPEVTCVVVDVSHEDPEVKFNWYVDGVEVHNAKTKPREEQYNSTYRVVSVLTVLHQDWLNGKEYKCKVSNKALPLPEEKTISKAKGQPREPQVYTLPPSREEMTKNQVSLWCLVKGFYPSDIAVEWESNGQPENNYKTTPPVLDSDGSFFLYSKLTVDKSRWQQGNVFSCSVMHEALHNHYTQKSLSLSPG
light 2: QSALTQPRSVSGSPGQSVTISCTGTSPDVGSHAYRSWYQQHPGKAPKLMIYEVSYRPSGVSNRFSGSKSGNTASLTISGLQAEDEADYYCSSYPPSSATVFGAGTKLTVLGQPKAAPSVTLFPPSSEELQANKATLVCLISDFYPGAVTVAWKADSSPVKAGVETTTPSKQSNNKYAASSYLSLTPEQWKSHRSYSCQVTHEGSTVEKTVAPTEC
notes: copies: 1 + 1 + 1 + 1
In the case of B1, in assay [1], binding was characterised by a dissociation constant (Kd) of 48 nM, the koff stood at 0.00379 s⁻¹ and the kon stood at 79000 M⁻¹ s⁻¹.

B2: anti-TIGIT×CD96 multispecific molecule BA127 (bispecific antibody, human IgG1, kappa, lambda)
heavy 1: QVQLVQSGAEVKKPGASVKVSCKASGYTFTTYALHWVRQAPGQRLEWMGWINTGSGDTKYSQKFQGRVTITRDTSASTAYMELSSLRSEDTAVYYCARSLGVYYGMDVWGQGTLVTVSSASTKGPSVFPLAPSSKSTSGGTAALGCLVKDYFPEPVTVSWNSGALTSGVHTFPAVLQSSGLYSLSSVVTVPSSSLGTQTYICNVNHKPSNTKVDKRVEPKSCDKTHTCPPCPAPELLGGPDVFLFPPKPKDTLMISRTPEVTCVVVDVSHEDPEVKFNWYVDGVEVHNAKTKPREEQYNSTYRVVSVLTVLHQDWLNGKEYKCKVSNKALPAPIEKTISKAKGQPREPQVYTLPPSREEMTKNQVSLSCAVKGFYPSDIAVEWESNGQPENNYKTTPPVLDSDGSFFLVSKLTVDKSRWQQGNVFSCSVMHEALHNHYTQKSLSLSPG
light 1: not shown
heavy 2: B1 heavy 2
light 2: B1 light 2
notes: Anti-CD96 arm = BA139, anti-TIGIT arm = BA150; copies: 1 + 1 + 1 + 1
B2 had an IC50 in assay [2] of 0.164 µg/mL.

B3: anti-TIGIT monospecific antibody BA148 (antibody, human IgG1, lambda)
heavy: EVQLVQSGAEVKKPGSSVKVSCKASGYTFASYGISWVRQAPGQGLEWMGGITPFFNRVDVAEKFQGRVTITADKSTSTAYIELSSLRSEDTAVYYCARDLRRGGVGDAFDIWGRGTLVTVSSASTKGPSVFPLAPSSKSTSGGTAALGCLVKDYFPEPVTVSWNSGALTSGVHTFPAVLQSSGLYSLSSVVTVPSSSLGTQTYICNVNHKPSNTKVDKRVEPKSCDKTHTCPPCPAPELLGGPDVFLFPPKPKDTLMISRTPEVTCVVVDVSHEDPEVKFNWYVDGVEVHNAKTKPREEQYNSTYRVVSVLTVLHQDWLNGKEYKCKVSNKALPLPEEKTISKAKGQPREPQVYTLPPSREEMTKNQVSLTCLVKGFYPSDIAVEWESNGQPENNYKTTPPVLDSDGSFFLYSKLTVDKSRWQQGNVFSCSVMHEALHNHYTQKSLSLSPGK
light: B1 light 2
notes: IgG1; also called anti-TIGIT IgG1 antibody BA148
For B3, the “EC50 (read off the curve)” value in assay [3] was roughly 0.008 µg/mL. In assay [4], this molecule displayed a Kd of 0.54 nM.
